Measured values taken from US20100199379.

Test system: T1, Medicago sativa NAP1-like protein, 6×HIS-tagged, expressed in BL21 E. coli and purified on nickel agarose
T1 sequence: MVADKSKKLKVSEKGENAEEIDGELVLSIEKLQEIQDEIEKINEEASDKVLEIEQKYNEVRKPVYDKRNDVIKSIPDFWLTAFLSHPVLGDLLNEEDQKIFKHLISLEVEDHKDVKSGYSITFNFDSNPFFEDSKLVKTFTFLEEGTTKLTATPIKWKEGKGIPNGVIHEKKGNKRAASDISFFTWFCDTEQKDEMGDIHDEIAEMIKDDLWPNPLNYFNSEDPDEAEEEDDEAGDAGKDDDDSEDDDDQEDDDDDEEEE

For “Protein Phosphatase 2A (PP2A) catalytic subunits purified from rabbit skeletal muscle”, the “PP2A activity on the phospho-histone H2A substrate (in vitro dephosphorylation of 32P-labelled substrate)” value was “already 2.5 mM concentration of the NAP1-like protein efficiently inhibited PP2A activity on the phospho-histonH2A substrate (50% decrease in activity)” and the “PP2A dephosphorylation of glycogen phosphorylase (in vitro, 32P-labelled substrate)” value was “the NAP1-like protein had no influence on the dephosphorylation of the glycogen phosphorylase even at 500 mM concentration”.
